The nanobody polyreactivity screen of Harvey et al. (2022)

Experiment: yeast display, Sf9 membrane polyspecificity reagent, FACS + sequencing; frameworks hold sequencing errors
How it was run: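 After 36–48 hours of galactose induction, yeast (Saccharomyces cerevisiae BJ5465) displaying a synthetic nanobody library were stained at 4 °C for 1 hour with 10% biotinylated, detergent-solubilized Sf9 membrane reagent. Streptavidin microbeads enriched the stained cells before FACS sorting into low and high (top ~1%) gates on anti-HA and streptavidin fluorescence. Each clone's polyreactivity label reflects its gate of origin.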

QVQLVESGGGLVQAGGSLRLSCAASGRTFVPNALGWYRQAPGKERELVAALSWSGDSTYYADSVKGRFTISRDNAKNTVYLQMNSLKPEDTAVYYCAADPFFGVSIGGLKYHFDYWGQGTQVTVSS
polyreactivity (PSR sort gate): low polyreactivity

QVQLVESGGGLVQAGGSLRLSCAASGRTFGVYAMGWYRQAPGKERELVAAIRWSGGGTYYADSVKGRFTISRDNAKNTVYLQMISLKPEDTAVYYCAATFQNSPYTRYTDMYYWGQGTQVTVSS
polyreactivity (PSR sort gate): low polyreactivity

QVQLVESGGGLVQAGGSLRLSCAASGRTSSSNAMGWYRQAPGKERELVATISRTGSTYYADSVKGRFTISRDNAKNTVYLQMNSLKPEDTAVYYCNRYFSEALLHGSSYNRYYYWGQGTQVTVSS
polyreactivity (PSR sort gate): low polyreactivity

QVQLVESGGGLVQAGGSLRLSCAASGRTFVYTMGWYRQAPGKERELVAAIRYSGGRTYYADSVKGRFTISRDNAQNTVYLQMNSLKPEDTAVYYCAARNYATGVRYDYWGQVTQVTVSS
polyreactivity (PSR sort gate): high polyreactivity

QVQLLESGAGLVQAGGSLRLSSAASGSIFNLNAMAWYRQAPGKERELVAGIRWSGGRTYYADSVKGRFTISRDNAKNTVYLQMNSLKPVDNEVYYCTAVGYLSWWYDYEYWGQGTQVTVST
polyreactivity (PSR sort gate): high polyreactivity

QVQLVESGGGLVQAGGSLRLSCAASGRIFRVYAMGWYRQAPGKERELVAAISWSGGRTYYADSVKGRFTISRDNAKNTVYLQMNSLKPEDTAVYYCAAERGGPTYYSGGDYDYWGQGTQVTVSS
polyreactivity (PSR sort gate): high polyreactivity

QVQLVESGGGLVQAGGSLRLSCAASGRIFVTYAMGWYRQAPGKERELVAVISWSGGSTYYADSVKGRITISRDNAKNTVYLQINSLKPEDTAVYYCARGLRKVRFDYWGQGTQVTVSS
polyreactivity (PSR sort gate): low polyreactivity

QVQLVESGGGLVQAGGSLRLSCAASGRTFIYYTMGWYREAPGKERELVASISFSGGRTYYADSVKGRFTISRDNAKNTVYLQMNSLKAEDTAVYYCNRVLYYQVDYWGQGTEVTVSS
polyreactivity (PSR sort gate): high polyreactivity

QVQLQESGGGLVQVGGSLRLSCAASGTIFIYGFLGWNRQAPGKERDLVASINLGGITNYADSVKGRFTISRDNAKITVYLQMNSLKPEDTAVYYCAADGGESAWGGYDYWGQGTQGTVSS
polyreactivity (PSR sort gate): low polyreactivity

HVQLVESGGGLVQAGGSLRLSCAASGSTFTRNAMGWSRQAPGKEWELVAVISSRGGRTYYADSVKGRFTISRDNAKNTVDLQMNSLKPEATAVYYCAARYVIPLGNTYDYWGPGTQVTVSS
polyreactivity (PSR sort gate): high polyreactivity

QVQLVESGGGLVQAGGSLRLSCAASGNTFSGTTMGWYRQAPGKERELVAAIRFTGGSTTYADSVKGRFTISRDNAKNTVYLQMNRLKPEDTAVYYCNTDWVSFRSIYHEYDYWGQGTQVTVSS
polyreactivity (PSR sort gate): low polyreactivity

QVQLVESGGGLVQAGGSLRLSCAASGSTFDYYAMGWYRQAPGKERELVAVISSSGGSTYYADSVKGRFTISRDNAKNTVYLQMNSLKPEDTAVYYCAALYRNYGSSYAYYYWGQGTQVTVSS
polyreactivity (PSR sort gate): low polyreactivity

QVQLVESGGGLVQAGGSLRLSCAASGRIFARYTMGWYRQAPGKEREFVAGIRSSGGRTYYADSVKGRFTISRDNAKNTVYLQMNSLKPEDTAVYYCKAGGSWYFARYDYWGQGTLVTVSS
polyreactivity (PSR sort gate): low polyreactivity

QVQLVESGGGLVQAGGSLSLNCAASGFTFLQYPMGWYRQAPGKERELVATISSGGSTYYADSVKGRFTISPDNAKNTVYLQMNSLKPEDTAVYYCADTGYSSCTYYTHEYWGQGTQVTVSS
polyreactivity (PSR sort gate): low polyreactivity

QVQLVESGAGLVQAGVSLGLSCAASGFTFVRDAMGWYRQAPGKEREFVASISARGGNTFYADSVQGRFSISRDNAKNTVYLKMNSLKPEDTAVYYCAKRGPYGTGYGYWGQGTQVTVSS
polyreactivity (PSR sort gate): high polyreactivity

QVQLEESGGGLVQAGGSLRLSCAASGIIFATYAMGWYRQAPGKDRELVAAISSGGRTYYADSVKGRFTISRDNAKNTVYLQMNSLKPEDTAVYYCAAKSGGRSSLYNYWGQGTQVNVSS
polyreactivity (PSR sort gate): high polyreactivity

QVQLVESGGGLVQAGGSLRLSCAAYGSTFQPYAMGWYRPATGKEREFVATISGSAGSTYYADSVKGRFKISRDNAKNTVYLQMNSLKPEDTAVDYCNADSGWFGYDYWGQGTQVTVSS
polyreactivity (PSR sort gate): low polyreactivity

QDQLVESGGGLVQAGGSLRLSCAAYGSTFERYVMGWYRQAPGKDRELVADINSGGSTNYADSVKGRFTISRDNAKNTVYLQMNSLKPEDTAVYYCAKDGWGGWWFPYRVKYGYWGQGSQVTVSS
polyreactivity (PSR sort gate): low polyreactivity

QVQLVDSGGGLVQAGGSLRVSCAASGSILPLNAMGWYRQGPGKERELVADISWSGGDTYYADSVKGRFTISRDNAKNTVYLQMNSLKPEDTSVYYCAADLHTELYKMDYWGQGTQVTVSS
polyreactivity (PSR sort gate): low polyreactivity

QVQLVESGGGLVQAGGSLRLSSPASGYIISTYVMGWYRQAPGKERDLVAAITRSGGSTYYADSVKGRFTISRDNAKNNVYLQMNSLKPEDTAVYYCNAYLYLYGLSGRYDYWGQGTQVTVSS
polyreactivity (PSR sort gate): high polyreactivity

QVQLVESGGGLVQAGGSLRLSCADSGGIFDWNDMGWYRHEPGKESELVAAITSGGVTYYADSVKGRFTISRDNAKNTVYLQMNSLIPDDTSVFYCATGYWGLWYGYDSWGQGTQVTVSS
polyreactivity (PSR sort gate): low polyreactivity

QVQLVESGGGLVQAGGSLRLSCAASGFTFYKYVMGWYRQAPGKERELVAAITQGGGSTYYADSVKGRFTISRDNAKNTVYLQMNSLKPEDTAVYYCNARNGYGIGYWGQGTQVTVSS
polyreactivity (PSR sort gate): high polyreactivity

QVQLVESGGGLVQAGGSLRLSCAASGFTFANNAMGWYRQAPGKERELVAAITRGDSTYYAESVKGRFTISRDNAKNTVYLQMNSRKPEDTAVYYCAKEWYFPIYDYWGQGTQVTVSS
polyreactivity (PSR sort gate): low polyreactivity

QVQLVESGGGLVQAGGSLRLSCAASGSTFTKNVMGWYRQAPGKERELVAAISSGGRTNYADSVKGRFTISRDNAKNTVYLQMNSLKPEDTAVYYCAADVGYFKSDYWGQGTQVTVSS
polyreactivity (PSR sort gate): low polyreactivity

QVQLVESGGGLVQAGGSLRLSCAASGSTSDVYAMGWYRQAPGKEREFVAAIRFSGGSTYYADSVKGRFTISRDNAKNTVYLQMNSLKPEDTAVYYCAKRWGIWPRGYYWGQGTQVTVSS
polyreactivity (PSR sort gate): low polyreactivity

HVQLVESGGGLVQAGGSLRLTCAAYGINFTDYAMGWYRQDPGKEMELVAAISSGGGSTYYADSVKGRFTISLDYAKNTVYLQMNSLKPEDTAVYYCAAEGYLISGAGDYMYDYYWGQGTQVTVSS
polyreactivity (PSR sort gate): high polyreactivity

QVQLVESGGGLVQAGGSLRLSCAASGLTFVSYVMGWYRQAPGKERELVAAISSSGGRTYYADSVKGRFTISRDNAKNTVYLQMNSLKPEDTAVYYCAVYGYHEGGYWGQGTQVTVSS
polyreactivity (PSR sort gate): high polyreactivity

QVQLVESGGGLVQAGGSLRLSCAASGITFAWYAMGWYRQAPGKEREFVAAITGSGGRTYYADSVKGRFTISRDIAKNTVYLQMNSLKPEDTAVYYCATASSVSGARYDYCGQGTQVTVSS
polyreactivity (PSR sort gate): high polyreactivity

QVQLVESGVGLVQAGGSLRLSCAASGITISYYSKGWSRQEPGKEREFVAAISWSVGSTYYADSVKGRFTISRDNAKNTVYLQMNSLKPEDTAVYYCAAEDGYWPTYYYWGQGTQVTVSW
polyreactivity (PSR sort gate): high polyreactivity

QVQLVESVGGLVQAGGSLRLSCAASGFILGYNAMGWYRQAPGKERELVADITFSGGGTNYADSVKGRFTISRDNAKNTVYLQMNSLKPEDTAVYDCNAAAFSQLRVRYDYWGQGTQVTVSS
polyreactivity (PSR sort gate): low polyreactivity

QVQLVESGGGLVQAGGSLRLSCAASGRISGYNMGWSRHAPGKERELVAAISNGGSTNYADSVKGRFTISRANAKNTVYLQMNSLKPEDTAVYYCAKLGPRSYSAYRYDYWGQGTQVTVSS
polyreactivity (PSR sort gate): high polyreactivity

KVQVVESGGGVVQAGGTLRLSCAASGSIAGNAMGWYRQAPGKERELVAAITFRGSGTYYADSVKGRFTISRDNAKNTVYLQINSLKPEDTAVYYCNAYRRGLSGYGYWGQGTQVTVSS
polyreactivity (PSR sort gate): high polyreactivity

QVQLVESGGGLVQAGGSLRLSCAASGFTFGYYAMGWYRQAPGKEREFVARISWSGDSTYYADSVKGRFTISRDNAKNTVYLQMNSLKPEDTSVYYCAAVVQTSWGKWNDYWGPGTQVTVSS
polyreactivity (PSR sort gate): high polyreactivity

QVQLVESGGGLVQAGGSLRLSCAASGFIFRRYVMGWYRQAPGKERELVAAISNGGGRTYYADSVKGRFTISRDNAKNTVYLQMNSQKPEDTAVYYCAAYPRGPLAPDYDYWGQGTQVSVSS
polyreactivity (PSR sort gate): high polyreactivity

QVQLVESGGGLVQAGGSLRLSCAASGRTFRVYAMGWYRQAPGKEREFVAAISYSGGRTYYADSVKGRFTISRDNAKNTVYLQMKSLKPEDTAVYYCAKRVPYGRGVTGYYWGQGTQVTVSS
polyreactivity (PSR sort gate): high polyreactivity

QVQLVESGGGLVQAGGSLRLSCAASGSTFAANAMGWYRQAPGKERELVAAIDSSTGSTYYADSVKGRFTISRDIAKNNVFLQMNRLKPEDTAVYYCNKTSFLVKLDYWGQGTQVTVSS
polyreactivity (PSR sort gate): low polyreactivity

QVQLVESGGGLVQAGGSLRLSCAASGRTFGYYAMGWYRQAPGKERELVAAISWSGGRTYYADSVKGRFTISRDNAKNTVYLQMNSLKPEDTAVYYCAAQTAGFWYDYWGQGTQVTVSS
polyreactivity (PSR sort gate): high polyreactivity

QVQLVESGGGLVQAGGSLRLSCAASGFIFNHYAMGWYRQAPGKEREFVAAISWSGTRTYYADSVKGRFTISRDNAKNTVYLQMNSLKPEDTSVYYCAADVWGPYDYWGQGTQLTVSS
polyreactivity (PSR sort gate): low polyreactivity

QVQLVESGGGLVQAGGSLRLSCAASGSIFSYNMGWYRQAPGKEREFVAAISSGGSTYYADSVKGRFTISRDNAKNTVYLQMNSLKPEDTAVYYCNRVRRGVWRQDDYWGQGTQVTVSS
polyreactivity (PSR sort gate): high polyreactivity

QVQLVESGGGLVQAGGSLRLSCAASGLTFGRYAMGWYRQAPGKERELVAAISSGGSTYYADSVKGRFTISRDNAKNTVYLQMNSLKPEDTAVYYCAADYVGWYFVSGRDYWGQGTQVTVSS
polyreactivity (PSR sort gate): low polyreactivity

QVQLVESGGGLDQARGSLRLSCAASGSITTFYAMGWSRQAHGKERELVAAISSSGGSTYYADSVKGRFTISRDNAKNTVYLQMNSLKPEDTAVYSCAAKGYPSRYSYGWYNYWGQGTQVTLSS
polyreactivity (PSR sort gate): high polyreactivity

QVQLVEPGGGLVQAGGSLRLSCAASGFTFYDYAMGWYRQAPGKERELVARINGGGGTNYADSVKGRFTISRDNAKNTVYLQMNSLKPEDSAVYYCAADLYFRQGDVDLLRYDYWGQGTQVTVSS
polyreactivity (PSR sort gate): low polyreactivity

QVQLVESGGGLVQAGGSLRLICAASGFIFDSYAMGWYRQAPGKARELVAAISVNGGTTYYADSVKGRFTISRDNAKNTVYLQMISLKPEDTAVYFCNADLYYDVGQPMDYWGQGTQVTVSS
polyreactivity (PSR sort gate): low polyreactivity
